Reference: publication PMC8106667 (Molecular cell, 2021)

B1: MBP-ORC1 wild type, full length (natural protein, human, UniProt Q13415 1-861, looked up)
chain: MAHYPTRLKTRKTYSWVGRPLLDRKLHYQTYREMCVKTEGCSTEIHIQIGQFVLIEGDDDENPYVAKLLELFEDDSDPPPKKRARVQWFVRFCEVPACKRHLLGRKPGAQEIFWYDYPACDSNINAETIIGLVRVIPLAPKDVVPTNLKNEKTLFVKLSWNEKKFRPLSSELFAELNKPQESAAKCQKPVRAKSKSAESPSWTPAEHVAKRIESRHSASKSRQTPTHPLTPRARKRLELGNLGNPQMSQQTSCASLDSPGRIKRKVAFSEITSPSKRSQPDKLQTLSPALKAPEKTRETGLSYTEDDKKASPEHRIILRTRIAASKTIDIREERTLTPISGGQRSSVVPSVILKPENIKKRDAKEAKAQNEATSTPHRIRRKSSVLTMNRIRQQLRFLGNSKSDQEEKEILPAAEISDSSSDEEEASTPPLPRRAPRTVSRNLRSSLKSSLHTLTKVPKKSLKPRTPRCAAPQIRSRSLAAQEPASVLEEARLRLHVSAVPESLPCREQEFQDIYNFVESKLLDHTGGCMYISGVPGTGKTATVHEVIRCLQQAAQANDVPPFQYIEVNGMKLTEPHQVYVQILQKLTGQKATANHAAELLAKQFCTRGSPQETTVLLVDELDLLWTHKQDIMYNLFDWPTHKEARLVVLAIANTMDLPERIMMNRVSSRLGLTRMCFQPYTYSQLQQILRSRLKHLKAFEDDAIQLVARKVAALSGDARRCLDICRRATEICEFSQQKPDSPGLVTIAHSMEAVDEMFSSSYITAIKNSSVLEQSFLRAILAEFRRSGLEEATFQQIYSQHVALCRMEGLPYPTMSETMAVCSHLGSCRLLLVEPSRNDLLLRVRLNVSQDDVLYALKDE
B2: MBP-ORC1 R105Q, R720Q (natural protein, human, UniProt Q13415 1-861, looked up)
chain: MAHYPTRLKTRKTYSWVGRPLLDRKLHYQTYREMCVKTEGCSTEIHIQIGQFVLIEGDDDENPYVAKLLELFEDDSDPPPKKRARVQWFVRFCEVPACKRHLLGQKPGAQEIFWYDYPACDSNINAETIIGLVRVIPLAPKDVVPTNLKNEKTLFVKLSWNEKKFRPLSSELFAELNKPQESAAKCQKPVRAKSKSAESPSWTPAEHVAKRIESRHSASKSRQTPTHPLTPRARKRLELGNLGNPQMSQQTSCASLDSPGRIKRKVAFSEITSPSKRSQPDKLQTLSPALKAPEKTRETGLSYTEDDKKASPEHRIILRTRIAASKTIDIREERTLTPISGGQRSSVVPSVILKPENIKKRDAKEAKAQNEATSTPHRIRRKSSVLTMNRIRQQLRFLGNSKSDQEEKEILPAAEISDSSSDEEEASTPPLPRRAPRTVSRNLRSSLKSSLHTLTKVPKKSLKPRTPRCAAPQIRSRSLAAQEPASVLEEARLRLHVSAVPESLPCREQEFQDIYNFVESKLLDHTGGCMYISGVPGTGKTATVHEVIRCLQQAAQANDVPPFQYIEVNGMKLTEPHQVYVQILQKLTGQKATANHAAELLAKQFCTRGSPQETTVLLVDELDLLWTHKQDIMYNLFDWPTHKEARLVVLAIANTMDLPERIMMNRVSSRLGLTRMCFQPYTYSQLQQILRSRLKHLKAFEDDAIQLVARKVAALSGDAQRCLDICRRATEICEFSQQKPDSPGLVTIAHSMEAVDEMFSSSYITAIKNSSVLEQSFLRAILAEFRRSGLEEATFQQIYSQHVALCRMEGLPYPTMSETMAVCSHLGSCRLLLVEPSRNDLLLRVRLNVSQDDVLYALKDE
B3: GST-CDC6 Δ71–90 (natural protein, human, UniProt Q99741 1-560, looked up)
chain: MPQTRSQAQATISFPKRKLSRALNKAKNSSDAKLEPTNVQTVTCSPRVKALPLSPRKRLGDDNLCNTPHLLKGRRLVFDNQLTIKSPSKRELAKVHQNKILSSVRKSQEITTNSEQRCPLKKESACVRLFKQEGTCYQQAKLVLNTAVPDRLPAREREMDVIRNFLREHICGKKAGSLYLSGAPGTGKTACLSRILQDLKKELKGFKTIMLNCMSLRTAQAVFPAIAQEICQEEVSRPAGKDMMRKLEKHMTAEKGPMIVLVLDEMDQLDSKGQDVLYTLFEWPWLSNSHLVLIGIANTLDLTDRILPRLQAREKCKPQLLNFPPYTRNQIVTILQDRLNQVSRDQVLDNAAVQFCARKVSAVSGDVRKALDVCRRAIEIVESDVKSQTILKPLSECKSPSEPLIPKRVGLIHISQVISEVDGNRMTLSQEGAQDSFPLQQKILVCSLMLLIRQLKIKEVTLGKLYEAYSKVCRKQQVAAVDQSECLSLSGLLEARGILGLKRNKETRLTKVFFKIEEKEIEHALKDKALIGNILATGLP
B4: GST-CDC6 Δ21–30 (natural protein, human, UniProt Q99741 1-560, looked up)
chain: MPQTRSQAQATISFPKRKLSDAKLEPTNVQTVTCSPRVKALPLSPRKRLGDDNLCNTPHLPPCSPPKQGKKENGPPHSHTLKGRRLVFDNQLTIKSPSKRELAKVHQNKILSSVRKSQEITTNSEQRCPLKKESACVRLFKQEGTCYQQAKLVLNTAVPDRLPAREREMDVIRNFLREHICGKKAGSLYLSGAPGTGKTACLSRILQDLKKELKGFKTIMLNCMSLRTAQAVFPAIAQEICQEEVSRPAGKDMMRKLEKHMTAEKGPMIVLVLDEMDQLDSKGQDVLYTLFEWPWLSNSHLVLIGIANTLDLTDRILPRLQAREKCKPQLLNFPPYTRNQIVTILQDRLNQVSRDQVLDNAAVQFCARKVSAVSGDVRKALDVCRRAIEIVESDVKSQTILKPLSECKSPSEPLIPKRVGLIHISQVISEVDGNRMTLSQEGAQDSFPLQQKILVCSLMLLIRQLKIKEVTLGKLYEAYSKVCRKQQVAAVDQSECLSLSGLLEARGILGLKRNKETRLTKVFFKIEEKEIEHALKDKALIGNILATGLP
B5: GST-CDC6 1–110 (domain or fragment, human, UniProt Q99741 1-110, looked up)
chain: MPQTRSQAQATISFPKRKLSRALNKAKNSSDAKLEPTNVQTVTCSPRVKALPLSPRKRLGDDNLCNTPHLPPCSPPKQGKKENGPPHSHTLKGRRLVFDNQLTIKSPSKR
B6: GST-CDC6 Δ51–70 (natural protein, human, UniProt Q99741 1-560, looked up)
chain: MPQTRSQAQATISFPKRKLSRALNKAKNSSDAKLEPTNVQTVTCSPRVKAPPCSPPKQGKKENGPPHSHTLKGRRLVFDNQLTIKSPSKRELAKVHQNKILSSVRKSQEITTNSEQRCPLKKESACVRLFKQEGTCYQQAKLVLNTAVPDRLPAREREMDVIRNFLREHICGKKAGSLYLSGAPGTGKTACLSRILQDLKKELKGFKTIMLNCMSLRTAQAVFPAIAQEICQEEVSRPAGKDMMRKLEKHMTAEKGPMIVLVLDEMDQLDSKGQDVLYTLFEWPWLSNSHLVLIGIANTLDLTDRILPRLQAREKCKPQLLNFPPYTRNQIVTILQDRLNQVSRDQVLDNAAVQFCARKVSAVSGDVRKALDVCRRAIEIVESDVKSQTILKPLSECKSPSEPLIPKRVGLIHISQVISEVDGNRMTLSQEGAQDSFPLQQKILVCSLMLLIRQLKIKEVTLGKLYEAYSKVCRKQQVAAVDQSECLSLSGLLEARGILGLKRNKETRLTKVFFKIEEKEIEHALKDKALIGNILATGLP
B7: GST-CDC6 Δ11–20 (natural protein, human, UniProt Q99741 1-560, looked up)
chain: MPQTRSQAQARALNKAKNSSDAKLEPTNVQTVTCSPRVKALPLSPRKRLGDDNLCNTPHLPPCSPPKQGKKENGPPHSHTLKGRRLVFDNQLTIKSPSKRELAKVHQNKILSSVRKSQEITTNSEQRCPLKKESACVRLFKQEGTCYQQAKLVLNTAVPDRLPAREREMDVIRNFLREHICGKKAGSLYLSGAPGTGKTACLSRILQDLKKELKGFKTIMLNCMSLRTAQAVFPAIAQEICQEEVSRPAGKDMMRKLEKHMTAEKGPMIVLVLDEMDQLDSKGQDVLYTLFEWPWLSNSHLVLIGIANTLDLTDRILPRLQAREKCKPQLLNFPPYTRNQIVTILQDRLNQVSRDQVLDNAAVQFCARKVSAVSGDVRKALDVCRRAIEIVESDVKSQTILKPLSECKSPSEPLIPKRVGLIHISQVISEVDGNRMTLSQEGAQDSFPLQQKILVCSLMLLIRQLKIKEVTLGKLYEAYSKVCRKQQVAAVDQSECLSLSGLLEARGILGLKRNKETRLTKVFFKIEEKEIEHALKDKALIGNILATGLP
B8: GST-CDC6 triple mutant (K92A, R94A and R95A) (natural protein, human, UniProt Q99741 1-560, looked up)
chain: MPQTRSQAQATISFPKRKLSRALNKAKNSSDAKLEPTNVQTVTCSPRVKALPLSPRKRLGDDNLCNTPHLPPCSPPKQGKKENGPPHSHTLAGAALVFDNQLTIKSPSKRELAKVHQNKILSSVRKSQEITTNSEQRCPLKKESACVRLFKQEGTCYQQAKLVLNTAVPDRLPAREREMDVIRNFLREHICGKKAGSLYLSGAPGTGKTACLSRILQDLKKELKGFKTIMLNCMSLRTAQAVFPAIAQEICQEEVSRPAGKDMMRKLEKHMTAEKGPMIVLVLDEMDQLDSKGQDVLYTLFEWPWLSNSHLVLIGIANTLDLTDRILPRLQAREKCKPQLLNFPPYTRNQIVTILQDRLNQVSRDQVLDNAAVQFCARKVSAVSGDVRKALDVCRRAIEIVESDVKSQTILKPLSECKSPSEPLIPKRVGLIHISQVISEVDGNRMTLSQEGAQDSFPLQQKILVCSLMLLIRQLKIKEVTLGKLYEAYSKVCRKQQVAAVDQSECLSLSGLLEARGILGLKRNKETRLTKVFFKIEEKEIEHALKDKALIGNILATGLP

Molecular target: T1, MBP-GFP-ORC1 wild type, full length (human, UniProt Q13415 1-861)
T1 sequence (looked up): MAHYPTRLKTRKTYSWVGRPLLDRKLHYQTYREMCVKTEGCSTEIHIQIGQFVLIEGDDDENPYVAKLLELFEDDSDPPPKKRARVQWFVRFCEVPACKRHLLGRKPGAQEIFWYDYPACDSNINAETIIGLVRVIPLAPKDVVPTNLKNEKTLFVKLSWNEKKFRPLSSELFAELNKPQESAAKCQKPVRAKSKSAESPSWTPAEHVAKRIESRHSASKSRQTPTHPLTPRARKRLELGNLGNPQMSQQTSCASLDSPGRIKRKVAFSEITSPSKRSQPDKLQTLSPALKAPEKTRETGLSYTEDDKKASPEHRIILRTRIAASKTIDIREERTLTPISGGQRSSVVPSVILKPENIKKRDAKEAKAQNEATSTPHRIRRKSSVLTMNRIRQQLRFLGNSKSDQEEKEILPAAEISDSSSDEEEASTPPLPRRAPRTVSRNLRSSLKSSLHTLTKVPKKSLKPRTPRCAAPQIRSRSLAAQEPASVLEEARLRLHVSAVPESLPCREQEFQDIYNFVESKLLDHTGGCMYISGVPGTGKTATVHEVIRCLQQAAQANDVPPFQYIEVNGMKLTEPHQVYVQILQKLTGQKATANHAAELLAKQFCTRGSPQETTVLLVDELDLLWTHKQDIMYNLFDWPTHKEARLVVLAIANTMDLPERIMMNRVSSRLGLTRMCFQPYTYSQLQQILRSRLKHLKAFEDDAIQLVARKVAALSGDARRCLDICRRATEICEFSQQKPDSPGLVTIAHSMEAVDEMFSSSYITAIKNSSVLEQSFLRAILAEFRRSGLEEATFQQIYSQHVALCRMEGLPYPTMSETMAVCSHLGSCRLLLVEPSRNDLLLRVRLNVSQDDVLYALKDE
Assay: pull-down

Binding result, binds:
B1, B2

Molecular target: B1
Assay: pull-down

Binding result, binds:
B3, B4, B5, B6, B7, B8
